How the values were obtained:
Experiment in all cases: co-immunoprecipitation from co-transfected 293 cell lysates: anti-FLAG IP, anti-HA immunoblot
[1] = target: T1, FLAG tagged TRAF 6 (UniProt Q9Y4K3 1-522, limits assumed)
T1 sequence (looked up): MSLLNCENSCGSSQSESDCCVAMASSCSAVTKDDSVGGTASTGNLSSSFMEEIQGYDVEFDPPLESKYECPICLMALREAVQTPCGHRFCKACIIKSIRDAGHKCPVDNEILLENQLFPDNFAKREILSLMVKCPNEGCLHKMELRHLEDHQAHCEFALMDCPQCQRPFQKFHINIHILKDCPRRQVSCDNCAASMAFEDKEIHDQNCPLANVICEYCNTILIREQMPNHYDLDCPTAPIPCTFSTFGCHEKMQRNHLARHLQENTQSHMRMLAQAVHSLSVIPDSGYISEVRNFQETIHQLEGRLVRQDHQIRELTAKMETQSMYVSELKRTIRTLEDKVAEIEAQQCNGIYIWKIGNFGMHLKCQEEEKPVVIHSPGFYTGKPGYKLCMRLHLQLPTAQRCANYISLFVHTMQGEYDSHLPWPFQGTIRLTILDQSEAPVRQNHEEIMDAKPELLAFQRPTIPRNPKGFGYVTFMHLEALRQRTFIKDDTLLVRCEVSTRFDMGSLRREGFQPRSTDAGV
Procedure: (§1) For TRAF binding assays, 5×10⁵ 293 cells were transfected with 10 μg of HA tagged TR12 and 10 μg of FLAG tagged TRAF 1, 2, 3, 5, or 6 by the calcium phosphate method and cells were harvested 48 hours post transfection in lysis buffer (with 1% NP-40). Whole cell lysates were immunoprecipated with anti-FLAG M2 beads (Sigma, MO), washed 5× with lysis buffer (without BSA), boiled 5 minutes, separated by 10% SDS PAGE, transferred to nitrocellulose, probed with anti-HA HRP (Roche), and developed with ECL (Amersham).
(§2) Since NF-κB activation by TNFR superfamily members is mediated primarily by the TRAF family of signaling molecules, the ability of TR12 to bind any of the TRAF molecules was studied. 293 cells were co-transfected with a FLAG tagged TRAF expression plasmid and a hemagglutinin tagged TR12 expression plasmid.

[2] = target: FLAG tagged TRAF 5 (UniProt O00463 1-557, limits assumed)
Procedure: as §1, §2

[3] = target: T2, FLAG tagged TRAF 2 (UniProt Q12933 1-501, limits assumed)
T2 sequence (looked up): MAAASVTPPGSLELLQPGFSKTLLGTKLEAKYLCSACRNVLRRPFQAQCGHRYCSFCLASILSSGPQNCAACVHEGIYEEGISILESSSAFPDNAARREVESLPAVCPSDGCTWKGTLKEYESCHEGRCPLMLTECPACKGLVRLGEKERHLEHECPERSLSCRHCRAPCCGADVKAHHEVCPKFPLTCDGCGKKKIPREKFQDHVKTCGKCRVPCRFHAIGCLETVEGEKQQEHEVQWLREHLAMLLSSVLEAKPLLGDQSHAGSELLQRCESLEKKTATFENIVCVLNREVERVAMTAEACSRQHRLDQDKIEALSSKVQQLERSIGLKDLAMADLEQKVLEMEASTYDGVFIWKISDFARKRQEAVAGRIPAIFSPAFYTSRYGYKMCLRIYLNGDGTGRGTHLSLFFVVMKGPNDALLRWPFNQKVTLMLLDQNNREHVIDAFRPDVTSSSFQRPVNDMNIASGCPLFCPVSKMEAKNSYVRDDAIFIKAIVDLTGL
Procedure: as §1, §2

[4] = target: T3, FLAG tagged TRAF 3 (UniProt Q13114 1-568, limits assumed)
T3 sequence (looked up): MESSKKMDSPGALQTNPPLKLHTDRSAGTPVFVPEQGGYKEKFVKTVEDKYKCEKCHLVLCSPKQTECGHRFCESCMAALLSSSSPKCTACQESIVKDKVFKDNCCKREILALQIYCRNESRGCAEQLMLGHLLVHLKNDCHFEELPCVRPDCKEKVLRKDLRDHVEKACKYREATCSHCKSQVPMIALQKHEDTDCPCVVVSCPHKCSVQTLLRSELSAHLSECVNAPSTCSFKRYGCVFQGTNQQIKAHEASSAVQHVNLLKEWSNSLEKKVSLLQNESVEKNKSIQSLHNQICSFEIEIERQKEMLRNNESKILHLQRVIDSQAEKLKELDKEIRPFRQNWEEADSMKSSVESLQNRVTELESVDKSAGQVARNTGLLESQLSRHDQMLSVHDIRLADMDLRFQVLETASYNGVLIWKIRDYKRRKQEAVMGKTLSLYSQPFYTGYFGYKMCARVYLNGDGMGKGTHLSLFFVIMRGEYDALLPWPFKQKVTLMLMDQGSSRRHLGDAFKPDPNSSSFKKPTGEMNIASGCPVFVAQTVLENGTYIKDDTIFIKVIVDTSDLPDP
Procedure: as §1, §2

Measured: binding result

FLAG tagged TRAF 5, sequence (O00463 whole entry): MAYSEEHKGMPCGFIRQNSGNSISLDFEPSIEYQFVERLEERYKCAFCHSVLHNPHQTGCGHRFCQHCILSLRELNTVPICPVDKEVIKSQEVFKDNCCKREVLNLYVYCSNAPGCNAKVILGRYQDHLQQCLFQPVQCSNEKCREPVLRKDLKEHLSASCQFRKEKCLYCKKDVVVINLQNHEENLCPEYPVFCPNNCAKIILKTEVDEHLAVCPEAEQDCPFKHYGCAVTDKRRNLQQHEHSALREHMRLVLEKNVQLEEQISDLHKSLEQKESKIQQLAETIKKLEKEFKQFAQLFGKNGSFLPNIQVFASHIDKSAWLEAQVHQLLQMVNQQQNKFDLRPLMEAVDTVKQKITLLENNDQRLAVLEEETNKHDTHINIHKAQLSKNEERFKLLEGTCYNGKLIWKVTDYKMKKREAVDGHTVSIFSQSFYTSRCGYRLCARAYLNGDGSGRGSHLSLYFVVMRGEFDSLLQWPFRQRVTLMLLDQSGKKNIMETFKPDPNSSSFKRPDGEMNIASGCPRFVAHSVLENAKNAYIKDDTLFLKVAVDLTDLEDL

B1: HA tagged TR12 (TNFR Related Gene 12) (receptor)
chain: STTLWQCPPGEEPDLDPGQGTLCRPCPPGTFSAAWGSSPCQPHARCSLWRRLEAQVGMATRDTLCGDCWPGWFGPWGVPRVPCQPCSWAPLGTHGCDEWGRRARRGVEVAAGASSGGETRQPGNGTRAGGPEETAAQYAVIAIVPVFCLMGLLGILVCNLLKRKGYHCTAHKEVGPGPGGGGSGINPAYRTEDANEDTIGVLVRLITEKKENAAALEELLKEYHSKQLVQTSHRPVSKLPPAPPNVPHICPHRHHLHTVQGLASLSGPCCSRCSQKKWPEVLLSPEAVAATTPVPSLLPNPTRVPKAGAKAGRQGEITILSVGRFRVARIPEQRTSSMVSEVKTITEAGPSWGDLPDSPQPGLPPEQQALLGSGGSRTKWLKPPAENKAEENRYVVRLSESNLVI
notes: Expressed from a plasmid in transfected 293 cells and tested in whole cell lysate; It includes the predicted leader (about residues 1-25), which may be cleaved in cells; also called hemagglutinin tagged TR12; not shown: HA (hemagglutinin) tag
no binding: all assays above

— patent US20020098541A1 (published 2002)
